Reference: PMC13223232, “Structural basis for TRF2-RAP1 recruitment by EBNA1 at the EBV origin of replication” (Scientific Reports, 2025)

What was measured:
[1] = biological target: EBNA1 DBD 401-607;TRF2 full length;Rap1 full length (Epstein-Barr virus;Homo sapiens?;Homo …, UniProt P03211;Q15554;Q9NYB0 401-607;1-542;1-399, ||); assay: EMSA; TRF2/Rap1 titrated with EBNA1 401-607; binding increased roughly twofold; EMSA: 10 mM HEPES pH 7.5, 300 mM KCl (100 mM for TRFH), 5 mM MgCl2, 1 mM ZnCl2, 5 mM BME, 0.05% NP-40, 5% glycerol; 5 nM probe; 20 nM EBNA1 in TRF2/Rap1 titrations; 1.4% agarose; temperature not stated; details: protein: recombinant;recombinant;recombinant; label: 5'-IRD700 on both strands (EMSA); text calls it 60 bp)
Rap1 full length = biological target: T1, Rap1 full length (UniProt Q9NYB0 1-399); assay: EMSA; up to 480 nM, no EBNA1; EMSA: 10 mM HEPES pH 7.5, 300 mM KCl (100 mM for TRFH), 5 mM MgCl2, 1 mM ZnCl2, 5 mM BME, 0.05% NP-40, 5% glycerol; 5 nM probe; 20 nM EBNA1 in TRF2/Rap1 titrations; 1.4% agarose; temperature not stated; details: protein: recombinant; tags: His6-SUMO (N-terminal, cleaved by ULP1); label: 5'-IRD700 on both strands (EMSA); text calls it 60 bp)
T1 sequence: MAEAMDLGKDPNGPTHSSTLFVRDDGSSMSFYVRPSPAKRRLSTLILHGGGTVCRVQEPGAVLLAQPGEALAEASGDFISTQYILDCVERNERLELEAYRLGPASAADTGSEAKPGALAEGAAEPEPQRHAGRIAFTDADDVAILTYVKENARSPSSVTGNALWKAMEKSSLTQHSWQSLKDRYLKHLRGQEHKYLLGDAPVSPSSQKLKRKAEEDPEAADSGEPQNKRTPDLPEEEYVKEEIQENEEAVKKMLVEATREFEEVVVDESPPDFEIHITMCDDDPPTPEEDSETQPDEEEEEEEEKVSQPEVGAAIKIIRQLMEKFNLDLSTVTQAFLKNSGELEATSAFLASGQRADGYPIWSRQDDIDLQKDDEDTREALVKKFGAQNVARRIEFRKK

[2] = biological target: TRF2 full length;Rap1 full length (Homo sapiens?;Homo sapiens?, UniProt Q15554;Q9NYB0 1-542;1-399, |); assay: EMSA; discrete bandshift, no EBNA1; EMSA: 10 mM HEPES pH 7.5, 300 mM KCl (100 mM for TRFH), 5 mM MgCl2, 1 mM ZnCl2, 5 mM BME, 0.05% NP-40, 5% glycerol; 5 nM probe; 20 nM EBNA1 in TRF2/Rap1 titrations; 1.4% agarose; temperature not stated; details: protein: recombinant;recombinant; tags: His6-SUMO (N-terminal, cleaved by ULP1);His6-SUMO (N-terminal, cleaved by ULP1); chain copies: 2;2; label: 5'-IRD700 on both strands (EMSA); text calls it 60 bp)
[3] = biological target: EBNA1 DBD 401-607;TRF2 TRFH domain (Epstein-Barr virus;Homo sapiens?, UniProt P03211;Q15554 401-607;85-287, |); assay: EMSA; clear TRFH supershift; EMSA: 10 mM HEPES pH 7.5, 300 mM KCl (100 mM for TRFH), 5 mM MgCl2, 1 mM ZnCl2, 5 mM BME, 0.05% NP-40, 5% glycerol; 5 nM probe; 20 nM EBNA1 in TRF2/Rap1 titrations; 1.4% agarose; temperature not stated; details: protein: recombinant;recombinant; tags: His6-SUMO (N-terminal, cleaved by ULP1);GST (N-terminal); chain copies: 4;2; label: 5'-IRD700 on both strands (EMSA); text calls it 60 bp)
[4] = biological target: EBNA1 459-607;TRF2 TRFH domain (Epstein-Barr virus;Homo sapiens?, UniProt P03211;Q15554 459-607;85-287, |); assay: as above; details: protein: recombinant;recombinant; tags: ;GST (N-terminal); chain copies: 4;2; label: 5'-IRD700 on both strands (EMSA); text calls it 60 bp)
[5] = biological target: EBNA1 DBD 401-607;TRF2 full length (Epstein-Barr virus;Homo sapiens?, UniProt P03211;Q15554 401-607;1-542, |); assay: EMSA; TRF2 titrated with EBNA1 401-607; binding increased roughly twofold; EMSA: 10 mM HEPES pH 7.5, 300 mM KCl (100 mM for TRFH), 5 mM MgCl2, 1 mM ZnCl2, 5 mM BME, 0.05% NP-40, 5% glycerol; 5 nM probe; 20 nM EBNA1 in TRF2/Rap1 titrations; 1.4% agarose; temperature not stated; details: protein: recombinant;recombinant; tags: His6-SUMO (N-terminal, cleaved by ULP1);His6-SUMO (N-terminal, cleaved by ULP1); chain copies: 4;2; label: 5'-IRD700 on both strands (EMSA); text calls it 60 bp)

EBNA1 459-607;TRF2 TRFH domain, sequence (Q15554 85-287, one chain of several): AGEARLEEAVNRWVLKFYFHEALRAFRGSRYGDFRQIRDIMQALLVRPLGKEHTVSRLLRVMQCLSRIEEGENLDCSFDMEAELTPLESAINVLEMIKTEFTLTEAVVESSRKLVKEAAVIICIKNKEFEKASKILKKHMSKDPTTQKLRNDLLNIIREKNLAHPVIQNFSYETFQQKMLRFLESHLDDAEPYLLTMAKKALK
EBNA1 DBD 401-607;TRF2 TRFH domain, sequence (Q15554 85-287, one chain of several): as above

B1: ½DS (EBV oriP dyad symmetry half) (dsDNA)
DNA 1: TAACCCTAATTCGATAGCATATGCTTCCCGTTGGGTAACATATGCTATTGAATTAGGGTTAG
DNA 2: CTAACCCTAATTCAATAGCATATGTTACCCAACGGGAAGCATATGCTATCGAATTAGGGTTA
B1: binds [1]; no binding (Rap1 full length); binds [2]. B1: binds [3]; binds [4]; binds [5].
